Experimental data reported in US11932880B2, “Enzyme and method for assaying pentosidine using same” (priority 2018, dated 2024).

B1: PenOX1: protein having the amino acid sequence of SEQ ID NO: 2, pentosidine oxidase from Sarocladium sp., gene g4462 (protein, listed as Sarocladium sp.)
chain: MKSPSLAVAGLLLGSSSLSHATQLRIETRKSLNSRIANVHIDVDAPVAHQVVFTYGPCDSESQENAHHVIAQSQKLEGRKPHRLIWTMPKDLHPDDCISAWGESGDLLGRSVPQKVAHKEMRRRKRDDSDYSIPMNSSSGIDVYGPWFDGVALLEKSDNHNVDVEAAKAKEIAIVGAGMAGLTTYFILSEAGLSNLTILEASGRLGGRVRTEYLSGGPRDHSYAEMGPMRIPYQARFGDKAYNISDQAIFFRLVEKVNERNKKLGNTKDLINLIPFIQSSPNGLAYYQGNKLENGLPPTQADVAADPALGNESPEIPESAQELAAQLQRALPNAEFLELMATNFWQAHAEFLENQGPAGLPGDQWSEFAFLVNYLNATVFDANAVTGGYDWHSSLDRSSLVGMNLLPNAFHPLVDDITKFNAKVEKVQLDEKTSRLKLHWRANYTDPELESQSFDYAILSPTMPAVQKLRLPGLPFAMRNAVDSMPYASACKVALEYRTRFWEKFDNPIYGSCSTSTDIPGIGSVCYPSSNINGSGPASLLASYEIGRPYGAEWAGIPEEQHVQYVIDAMIDIHGEVARREFTGKCKRKCWALDEFSNGGWASPTVGNHETYLPSFFETHSHMIFVGEHTSYTHAWIASAIESAVRGSVQLLLELGLIDEAKDVVNTWMARWISVVSDLSKAVVSGASA
B2: Amino Acid Oxidase Type VI Derived from Crotalus adamanteus: purchased enzyme manufactured by Merck, SEQ ID NO: 12 (protein, listed as Crotalus adamanteus)
chain: AHDRNPLEECFRETDYEEFLEIAKNGLTATSNPKRVVIVGAGMAGLSAAYVLAGAGHQVTVLEASERVGGRVRTYRKKDWYANLGPMRLPTKHRIVREYIKKFDLKLNEFSQENENAWYFIKNIRKRVREVKNNPGLLEYPVKPSEEGKSAAQLYVESLRKVVEELRSTNCKYILDKYDTYSTKEYLLKEGNLSPGAVDMIGDLLNEDSGYYVSFIESLKHDDIFGYEKRFDEIVGGMDQLPTSMYEAIKEKVQVHFNARVIEIQQNDREATVTYQTSANEMSSVTADYVIVCTTSRAARRIKFEPPLPPKKAHALRSVHYRSGTKIFLTCTKKFWEDDGIHGGKSTTDLPSRFIYYPNHNFTSGVGVIIAYGIGDDANFFQALDFKDCADIVINDLSLIHELPKEDIQTFCHPSMIQRWSLDKYAMGGITTFTPYQFQHFSEALTAPFKRIYFAGEYTAQFHGWIDSTIKSGLTAARDVNRASENPSGIHLSNDNEF
B3: Amino Acid Oxidase Type I Derived from Crotalus atrox: purchased enzyme manufactured by Merck, SEQ ID NO: 13 (protein)
chain: B2 chain
modifications: Crotalus atrox
B4: Lysine Oxidase Derived from Trichoderma viride: purchased enzyme manufactured by Merck, SEQ ID NO: 14 (protein)
chain: MDNVDFAESVRTRWARRLIREKVAKELNILTERLGEVPGIPPPREGRFLGGGYSHDNLPSDPLYSSIKPALLKEAPRAEEELPPRKVCIVGAGVSGLYIAMILDDLKIPNLTYDIFESSSRTGGRLYTHHFTDAKHDYYDIGAMRYPDIPSMKRTFNLFKRTGMPLIKYYLDGENTPQLYNNHFFAKGVVDPYMVSVANGGTVPDDVVDSVGEKLQQAFGYYKEKLAEDFDKGFDELMLVDDMTTREYLKRGGPKGEAPKYDFFAIQWMETQNTGTNLFDQAFSESVIDSFDFDNPTKPEWYCIEGGTSLLVDAMKETLVHKVQNNKRVEAISIDLDAPDDGNMSVKIGGKDYSGYSTVFNTTALGCLDRMDLRGLNLHPTQADAIRCLHYDNSTKVALKFSYPWWIKDCGITCGGAASTDLPLRTCVYPSYNLGDTGEAVLLASYTWSQDATRIGSLVKDAPPQPPKEDELVELILQNLARLHAEHMTYEKIKEAYTGVYHAYCWANDPNVGGAFALFGPGQFSNLYPYLMRPAAGGKFHIVGEASSVHHAWIIGSLESAYTAVYQFLYKYKMWDYLRLLLERWQYGLQELETGKHGTAHLQFILGSLPKEYQVKIV
modifications: Trichoderma viride

Assays:
[1] = Pentosidine quantitative test (DA-67/peroxidase, A658, Bio Majesty JCA-BM1650); format: biochemical; conditions: 0.2-4.0 μM pentosidine solutions, 37° C., 5 minutes; ΔA658 correlated with final pentosidine concentration (FIG. 4)
Experimental: The following reagents were prepared to measure pentosidine by using Bio Majesty JCA-BM1650 (manufactured by JEOL Ltd.).
0.2 μM, 0.4 μM, 0.6 μM, 1.0 μM, 2.0 μM or 4.0 μM pentosidine solution
25 μL of the sample was added to 50 μL of the first reagent, and the resultant was incubated at 37° C. for 5 minutes. Then, 25 μL of the second reagent was added thereto to allow a pentosidine oxidation reaction owing to PenOX2 and a detection reaction for hydrogen peroxide generated through the reaction to proceed at 37° C. for 5 minutes.
In the detection reaction for hydrogen peroxide, simultaneously with consumption of […], DA-67 is oxidized into methylene blue to present the color, and the absorbance (A658) is increased. As an example, the relationship between the elapsed time after the mixture of the sample (4.0 μM pentosidine solution) and the first reagent and the absorbance (A658) is shown in FIG. 3. It was confirmed that A658 increased immediately after the addition of the second reagent containing PenOX2.
Subsequently, an A658 increment (AA) caused by the oxidation of pentosidine was calculated in accordance with the following equation: ΔA=(absorbance 5 min after addition of second reagent)−(absorbance immediately before addition of second reagent×0.75)

[2] = Enzyme activity measurement with pentosidine as substrate (A555 change, U/mL); format: biochemical; conditions: 37° C.; for pentosidine oxidase activity: purchased enzymes at 1 mg/mL, potassium phosphate buffer pH 7.5, 100 mM; for specific activity, as a reference value (pentosidine oxidase): 1 mg of powder dissolved in 1 mL deionized water
Experimental: 600 μL of an arbitrary buffer, 400 μL of deionized water solution in which 3.99 U/mL peroxidase, 1.8 mM 4-aminoantipyrine and 2 mM TOOS were dissolved, and 150 μL of deionized water were incubated at an arbitrary temperature for 10 minutes. Then, 50 μL of the enzyme solution having been stored on ice and 400 μL of a solution of 4 mM pentosidine dissolved in a 100 mM potassium phosphate buffer (pH 8.0) having been incubated at an arbitrary temperature for 10 minutes were added thereto, followed by stirring and reacting at an arbitrary temperature for 3 minutes. A change over time of A555 during the reaction was measured using a spectrophotometer (U-3900, manufactured by Hitachi High-Tech Science Corporation). An elapsed time from the start of the measurement of 20 seconds to 60 seconds—A555 change was regarded as an activity value.
Besides, an amount of the enzyme generating 1 μmol of hydrogen peroxide per minute at 37° C. was defined as one unite (U), and the activity was calculated in accordance with the following equation. Activity (U/mL)={(ΔAs−ΔA0)×1.6×df}/(39.2×0.5×0.05) • ΔAs: change of A555 per minute of reaction solution • ΔA0: change of A555 per minute of control experiment • 1.6: volume (mL) of whole reaction solution • df: dilution factor • 39.2: millimolar absorbance coefficient (mM^−1-cm-1) of quinoneimine pigment generated through reaction • 0.5: molar number of quinoneimine pigment generated by 1 mol of hydrogen peroxide • 0.05: volume (mL) of enzyme solution
A 50 mM citric acid-100 mM potassium phosphate buffer (pH 4.0 to 7.5, a final concentration), a potassium phosphate buffer (pH 6.5 to 8.0, a final concentration of 100 mM), and a glycine buffer (pH 8.0 to 11.0, a final concentration of 100 mM) were prepared, and these were used to perform an enzymatic reaction at respective pH at a temperature of 37° C. […] Therefore, it was determined that the optimum pH of PenOX2 is pH 6.5 to 8.0, and that the most suitable optimum pH is pH 7.5.
A potassium phosphate buffer (pH 7.5) having a final concentration of 50 mM was used to perform the activity measurement of PenOX2 at various temperatures. The highest activity was obtained around 50° C., and a temperature range for attaining 80% or more of this highest activity was 37° C. to 50° C. Therefore, it was determined that the range of the optimum temperature of PenOX2 is 37° C. to 50° C.
The above-described activity measurement method was employed to perform activity measurement using a potassium phosphate buffer (final pH in the activity measurement: pH 7.5, final concentration of 50 mM) at 37° C., and an activity value (U/mL) was obtained by using the aforementioned equation.
As described above, both PenOX1 and PenOX2 had the pentosidine oxidase activity. […] Subsequently, the following three enzymes were purchased, and the above-described activity measurement method was employed for confirming their pentosidine oxidase activity using a potassium phosphate buffer (pH 7.5, final concentration of 100 mM) at 37° C. The amino acid sequence homologies with PenOX1 and PenOX2 and the pentosidine oxidase activities of these enzymes were as follows.

Molecule | pentosidine oxidation activity [1] | specific activity (pentosidine oxidase) ([2]; enzyme concentration 1 mg/mL (biuret method), pH 7.5, 100 mM) | pentosidine oxidase activity [2] | specific activity, as a reference value (pentosidine oxidase) ([2]; pH 7.5, 100 mM)
B1 | similarly exhibited pentosidine oxidation activity | – | – | –
B2 | – | 0.555 U/mg | 0.555 U/mL | –
B3 | – | – | 0.022 U/mL | 0.022 U/mg
B4 | – | – | 0.063 U/mL | 0.063 U/mg
